± gives the standard deviation of the averaged measurements.
Test system: ATP
Assay: switch fluorescence ratio, 500 uM ATP over buffer (Cy3 cluster intensity, sum of 5 cycles each) (fold (ratio)); higher = stronger signal-on switching upon ATP binding; sequences stand for … in TCGTCGGCAGCGTCAGATGTGTATAAGAGACAGTTTTTTTTTTTTTTTTTTTTTTTTT…TC
Conditions: aptamer strand: ATP DNA aptamer (quencher-CACCTGGGGGAGTATTGCGGAGGAAGG + anchor), 100 nM annealed; ATP concentration: 500 uM
How it was run: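 Exposure to 500 uM ATP lasted 15 min at 22 °C before imaging, and a selection-buffer image was taken beforehand, for Cy3-labelled switching-strand clusters on a modified Illumina MiSeq flow-cell annealed to 100 nM quencher-labelled ATP aptamer. Five buffer/ATP cycles were run with NaOH stripping and re-annealing between them. The fluorescence ratio per cluster is summed target-cycle over summed buffer-cycle Cy3 intensity, averaged per switch-domain sequence. Clusters outside 100-1000 RFU were excluded.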

| Sequence | switch fluorescence ratio |
| --- | --- |
| GGTTTGTATG | 0.976 ± 0.021 |
| GGTTTTAAAA | 0.99 ± 0.013 |
| GGTTTTATGT | 0.984 ± 0.032 |
| GGTTTTCATT | 0.951 ± 0.053 |
| GGTTTTCCGT | 1.07 ± 0.051 |
| GGTTTTCCTG | 0.975 ± 0.014 |
| GGTTTTCTAA | 0.9838 ± 0.0051 |
| GGTTTTCTTT | 1 ± 0.035 |
| GGTTTTGCGG | 0.997 ± 0.029 |
| GGTTTTGCTG | 1.05 ± 0.053 |
| GGTTTTGGAT | 0.986 ± 0.019 |
| GGTTTTGTTA | 1.03 ± 0.086 |
| GGTTTTTCCG | 1.03 ± 0.033 |
| GGTTTTTTGA | 1.01 ± 0.038 |
| GGTTTTTTGG | 0.98 ± 0.021 |
| GGTTTTTTTA | 0.983 ± 0.032 |
| GTAAAAATTG | 0.986 ± 0.028 |
| GTAACATGGG | 0.973 ± 0.021 |
| GTAACGGAAC | 1.13 ± 0.018 |
| GTAACGTAAG | 1.03 ± 0.034 |
| GTAAGAGCGT | 0.996 ± 0.041 |
| GTAAGGAAGG | 0.989 ± 0.012 |

| Sequence | switch fluorescence ratio |
| --- | --- |
| GTAAGGGGGG | 0.994 ± 0.028 |
| GTAAGGGGGT | 0.9731 ± 0.0091 |
| GTAAGGGGTG | 1.01 ± 0.014 |
| GTAAGGGGTT | 1.033 ± 0.0064 |
| GTAAGTCATT | 1 ± 0.029 |
| GTAATATGCG | 0.987 ± 0.018 |
| GTAATATGTG | 0.991 ± 0.013 |
| GTAATCTGTT | 0.989 ± 0.075 |
| GTAATGAGGT | 1.01 ± 0.024 |
| GTAATGGACC | 1.03 ± 0.043 |
| GTAATGGTTT | 1.07 ± 0.17 |
| GTAATGTATC | 1.03 ± 0.046 |
| GTACTTGGGA | 1.04 ± 0.074 |
| GTAGAGGGGA | 1.02 ± 0.016 |
| GTAGATAGTT | 1.02 ± 0.036 |
| GTAGCAAGGG | 2.38 ± 1.9 |
| GTAGCCTGGT | 0.989 ± 0.041 |
| GTAGCTCTTA | 1.04 ± 0.019 |
| GTAGGAAATA | 1.02 ± 0.02 |
| GTAGGAGGTA | 0.9807 ± 0.0039 |
| GTAGGCAACA | 1.01 ± 0.068 |
| GTAGGGACCG | 0.909 ± 0.025 |

| Sequence | switch fluorescence ratio |
| --- | --- |
| GTAGGGAGCA | 1.02 ± 0.022 |
| GTAGGGATAG | 1.02 ± 0.057 |
| GTAGGGGACA | 1.06 ± 0.012 |
| GTAGGGGAGC | 0.977 ± 0.06 |
| GTAGGGGCCT | 1.057 ± 0.0073 |
| GTAGGGGGAG | 0.9884 ± 0.004 |
| GTAGGGGTAA | 0.974 ± 0.036 |
| GTAGGGGTAC | 1.47 ± 0.72 |
| GTAGGGGTTT | 0.998 ± 0.034 |
| GTAGGGTGTG | 0.973 ± 0.041 |
| GTAGGTAGCG | 0.984 ± 0.031 |
| GTAGGTAGTT | 1.09 ± 0.14 |
| GTAGTAAAGG | 0.9867 ± 0.0034 |
| GTAGTCCAGG | 1.27 ± 0.082 |
| GTAGTCGTAC | 1.11 ± 0.064 |
| GTAGTGCAAT | 1.1 ± 0.018 |
| GTAGTTAATG | 0.984 ± 0.038 |
| GTAGTTGGAG | 0.992 ± 0.034 |
| GTATAAATGG | 0.978 ± 0.023 |
| GTATAAGTTG | 1.02 ± 0.047 |
| GTATATATAG | 1.02 ± 0.03 |
| GTATCAGGCC | 0.992 ± 0.01 |

| Sequence | switch fluorescence ratio |
| --- | --- |
| GTATCGAGAG | 1.01 ± 0.013 |
| GTATCGTACG | 0.984 ± 0.014 |
| GTATCTGGGG | 0.998 ± 0.059 |
| GTATGAATGG | 0.984 ± 0.049 |
| GTATGCCGGG | 0.939 ± 0.057 |
| GTATGCTTTT | 1.034 ± 0.0043 |
| GTATGGAGGG | 1.02 ± 0.029 |
| GTATGGCTGG | 0.976 ± 0.044 |
| GTATGTAGCG | 0.987 ± 0.027 |
| GTATGTATTT | 0.986 ± 0.021 |
| GTATGTTAGG | 1.0143 ± 0.00055 |
| GTATTAGGGC | 1.02 ± 0.0034 |
| GTATTATAGG | 1.006 ± 0.0042 |
| GTATTCTCCA | 1.018 ± 0.0043 |
| GTATTTAGGG | 1.03 ± 0.039 |
| GTATTTGGGC | 0.994 ± 0.012 |
| GTATTTGTTC | 1.01 ± 0.034 |
| GTATTTTTGA | 1.003 ± 0.0091 |
| GTATTTTTGC | 1.02 ± 0.024 |

Reference: the supplement of paper PMC10126150
